Results on 2 proteins are retold here after patent US10385116 (OMNIOX, dated 2019).

Data set [1] concerns the molecule itself. Nature of the data set: size exclusion chromatography; self-association of H-NOX+foldon monomers into a homotrimer. In general terms: SEC sorts molecules by how far they enter the pores of the column.
Data set [2] deals with the molecule itself. Nature of the data set: analytical size exclusion chromatography (Superdex 200 10/300 GL); self-association into a homotrimer.

B1: H-NOX variant L144F-foldon fusion protein with no His6 tag at the C-terminus (monomer unit of the trimer) (other)
chain: MKGTIVGTWIKTLRDLYGNDVVDESLKSVGWEPDRVITPLEDIDDDEVRRIFAKVSEKTGKNVNEIWREVGRQNIKTFSEWFPSYFAGRRLVNFLMMMDEVHLQLTKMIKGATPPRLIAKPVAKDAIEMEYVSKRKMYDYFLGFIEGSSKFFKEEISVEEVERGEKDGFSRLKVRIKFKNPVFEYKKNLEGSGGYIPEAPRDGQAYVRKDGEWVLLSTFL
modifications: non-covalently bound heme cofactor is not carried by the letters
notes: No His6 tag; also called H-NOX+foldon; L144F H-NOX trimer without His6
In the case of B1, the binding result in data set [1] is “binds”.

B2: Thermoanaerobacter tengcongensis L144F H-NOX-foldon-His6 fusion protein (monomer unit) (other)
chain: MKGTIVGTWIKTLRDLYGNDVVDESLKSVGWEPDRVITPLEDIDDDEVRRIFAKVSEKTGKNVNEIWREVGRQNIKTFSEWFPSYFAGRRLVNFLMMMDEVHLQLTKMIKGATPPRLIAKPVAKDAIEMEYVSKRKMYDYFLGFIEGSSKFFKEEISVEEVERGEKDGFSRLKVRIKFKNPVFEYKKNLEGSGGYIPEAPRDGQAYVRKDGEWVLLSTFLRGSHHHHHH
modifications: heme (porphyrin IX) cofactor bound non-covalently (so in the source)
notes: 229 amino acids, 26,677 AMU as a monomer; Three of these chains associate through the foldon domain to form the about 80 kDa H-NOX trimer; It is entered as the monomer unit so that the self-association can be written as a pair; also called H-NOX-foldon fusion protein; H-NOX-foldon protein
Regarding B2, the binding result in data set [2] is listed as “binds”.
